The Kd is the equilibrium constant for the complex coming apart.

Experiment [1] addresses T1, cynomolgus monkey FcγRIIa1 extracellular domain, His-tagged (cynomolgus monkey).
T1 construct: also called cyno FcγRIIa1; cynoFcgRIIa1
T1 chain: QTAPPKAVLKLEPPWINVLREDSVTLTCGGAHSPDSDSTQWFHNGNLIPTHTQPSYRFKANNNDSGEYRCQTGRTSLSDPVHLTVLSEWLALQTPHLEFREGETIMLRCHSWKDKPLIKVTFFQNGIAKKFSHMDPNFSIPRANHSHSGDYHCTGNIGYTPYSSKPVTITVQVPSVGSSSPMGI
In words: SPR; KD of SG1 / KD of variant.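 Note: relative to parent M103205H795-SG1 carrying the SG1 human heavy chain constant region.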 A general note: SPR reads the build-up and loss of mass on a sensor chip optically.

The target in experiment [2] is T2, cynomolgus monkey FcγRIIa2 extracellular domain, His-tagged (cynomolgus monkey).
T2 construct: also called cyno FcγRIIa2; cynoFcgRIIa2
T2 chain: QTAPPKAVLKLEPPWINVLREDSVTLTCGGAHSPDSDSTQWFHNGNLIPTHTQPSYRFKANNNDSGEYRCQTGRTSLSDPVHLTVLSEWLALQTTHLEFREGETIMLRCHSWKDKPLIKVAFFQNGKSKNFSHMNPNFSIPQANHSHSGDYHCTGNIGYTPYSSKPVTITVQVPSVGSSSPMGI
As to the kind of experiment: SPR; KD of SG1 / KD of variant.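 Note: relative to parent M103205H795-SG1 carrying the SG1 human heavy chain constant region.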

Experiment [3] has as its target T3, cynomolgus monkey FcγRIIa3 extracellular domain, His-tagged (cynomolgus monkey).
T3 construct: also called cyno FcγRIIa3; cynoFcgRIIa3
T3 chain: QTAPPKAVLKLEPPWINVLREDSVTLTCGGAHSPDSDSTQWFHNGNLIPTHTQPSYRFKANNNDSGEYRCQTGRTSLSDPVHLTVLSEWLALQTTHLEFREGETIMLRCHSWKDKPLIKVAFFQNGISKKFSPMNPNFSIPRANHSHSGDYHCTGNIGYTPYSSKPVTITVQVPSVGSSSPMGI
As to the kind of experiment: SPR; KD of SG1 / KD of variant.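 Note: relative to parent M103205H795-SG1 carrying the SG1 human heavy chain constant region.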

The target in experiment [4] is T4, cynomolgus monkey FcγRIIb extracellular domain, His-tagged (cynomolgus monkey).
T4 construct: also called cyno FcγRIIb; cynoFcγRIIb
T4 chain: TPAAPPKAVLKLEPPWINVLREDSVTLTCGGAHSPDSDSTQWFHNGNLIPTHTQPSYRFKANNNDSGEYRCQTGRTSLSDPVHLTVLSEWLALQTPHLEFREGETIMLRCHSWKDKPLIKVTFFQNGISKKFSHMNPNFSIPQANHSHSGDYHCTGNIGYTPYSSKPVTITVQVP
As to the kind of experiment: SPR; KD of SG1 / KD of variant.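 Note: relative to parent M103205H795-SG1 carrying the SG1 human heavy chain constant region.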

Experiment [5] has as its target T5, cynomolgus monkey FcγRIIIaS extracellular domain, His-tagged (cynomolgus monkey, UniProt Q8SPW2 21-206 at identity 1.00)).
T5 construct: also called cyno FcγRIIIaS; cynoFcγRIIIaS
T5 chain: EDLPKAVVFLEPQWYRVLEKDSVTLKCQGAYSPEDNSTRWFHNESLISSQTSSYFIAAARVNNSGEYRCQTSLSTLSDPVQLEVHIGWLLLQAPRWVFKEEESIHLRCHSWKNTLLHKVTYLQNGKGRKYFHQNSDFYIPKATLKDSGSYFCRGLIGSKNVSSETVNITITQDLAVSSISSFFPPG
As to the kind of experiment: SPR; KD of SG1 / KD of variant.

Experiment [6] concerns the target T6, human FcγRIIaH extracellular domain, His-tagged (human, UniProt P12318 34-217).
T6 construct: also called human FcγRIIa (type H); FcgRIIaH
T6 sequence: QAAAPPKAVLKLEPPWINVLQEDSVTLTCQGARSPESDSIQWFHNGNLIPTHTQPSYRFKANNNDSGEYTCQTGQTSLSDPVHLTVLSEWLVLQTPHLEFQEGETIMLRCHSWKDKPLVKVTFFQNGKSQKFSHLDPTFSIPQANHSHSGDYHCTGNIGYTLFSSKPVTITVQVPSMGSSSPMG
As to the kind of experiment: SPR; KD of SG1 / KD of variant.

In experiment [7] the target is T7, human FcγRIIaR extracellular domain, His-tagged (human, UniProt P12318 34-217).
T7 construct: also called human FcγRIIa (type R); FcgRIIaR
T7 chain: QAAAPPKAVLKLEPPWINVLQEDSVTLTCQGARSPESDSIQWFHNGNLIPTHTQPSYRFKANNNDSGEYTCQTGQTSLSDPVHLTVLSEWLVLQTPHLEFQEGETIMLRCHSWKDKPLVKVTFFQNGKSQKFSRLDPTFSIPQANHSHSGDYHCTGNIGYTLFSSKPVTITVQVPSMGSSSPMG
In words: SPR; KD of SG1 / KD of variant.

Experiment [8] addresses T8, human FcγRIIb extracellular domain, His-tagged (human, UniProt P31994 43-217).
T8 construct: also called FcgRIIb (human)
T8 sequence: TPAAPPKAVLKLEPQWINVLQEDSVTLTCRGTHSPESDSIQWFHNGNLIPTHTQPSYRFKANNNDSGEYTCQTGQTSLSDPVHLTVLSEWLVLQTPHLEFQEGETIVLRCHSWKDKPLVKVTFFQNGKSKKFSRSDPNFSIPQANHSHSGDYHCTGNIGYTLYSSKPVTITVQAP
In words: SPR; KD of SG1 / KD of variant.

The target in experiment [9] is T9, human FcγRIIIaV extracellular domain, His-tagged (human, UniProt P08637 17-208).
T9 construct: also called FcgRIIIaV
As to the kind of experiment: SPR; KD of SG1 / KD of variant.

Experiment [10] deals with T1, cynomolgus monkey FcγRIIa1 …. As to the kind of experiment: SPR, antibody captured, FcgR analyte. On the procedure: (§1) The kinetic analysis of interactions between these antibodies and FcγR was carried out using BIACORE® T200 or BIACORE® 4000 (GE Healthcare). HBS-EP+ (GE Healthcare) was used as the running buffer, and the measurement temperature was set to 25° C. A chip produced by immobilizing Protein A. Protein A/G or mouse anti-human IgG kappa light chain (BD Biosciences) onto a Series S Sensor Chip CM4 or CM5 (GE Healthcare) by the amine-coupling method was used. […] After the measurement, the antibody captured on the chip was washed off by allowing reaction with 10 mM glycine-HCl, pH1.5 and 25 mM NaOH so that the chip was regenerated and used repeatedly. The sensorgrams obtained as measurement results were analyzed by the 1:1 Langmuir binding model using the BIACORE® Evaluation Software to calculate the binding rate constant ka (L/mol/s) and dissociation rate constant kd (l/s), and the dissociation constant KD (mol/L) was calculated from these values. […] Regarding such interactions, KD values were calculated using the following 1:1 binding model described in BIACORE® T100 Software Handbook BR1006-48 Edition AE.
(§2) The behavior of interacting molecules according to the 1:1 binding model on BIACORE® can be described by Equation 1: Req=C·R max/(KD+C)+RI, wherein, Req is a plot of steady-state binding levels to analyte concentration. C is concentration, RI is bulk refractive index contribution in the sample, and Rmax is analyte binding capacity of the surface. When this equation is rearranged, KD can be expressed as Equation 2: KD=C·Rmax/(Req−RI)−C. KD can be calculated by substituting the values of Rmax, RI, and C into Equation 1 or Equation 2. From the current measurement conditions, RI=0, C=2 μmol/L can be used.

Experiment [11] addresses T2, cynomolgus monkey FcγRIIa2 …. In words: SPR, antibody captured, FcgR analyte. On the procedure:
as §1, §2

The target of experiment [12] is T3, cynomolgus monkey FcγRIIa3 …. In words: SPR, antibody captured, FcgR analyte. As to the method:
as §1, §2

Experiment [13] addresses T4, cynomolgus monkey FcγRIIb extracellular …. As to the kind of experiment: SPR, antibody captured, FcgR analyte. On the procedure: as §1, §2
Experiment [14] deals with T5, cynomolgus monkey FcγRIIIaS …. In words: SPR, antibody captured, FcgR analyte. On the procedure:
as §1, §2

Experiment [15] has as its target T6, human FcγRIIaH extracellular domain, …. In words: SPR, antibody captured, FcgR analyte. On the procedure:
as §1, §2

The target of experiment [16] is T7, human FcγRIIaR extracellular domain, …. As to the kind of experiment: SPR, antibody captured, FcgR analyte. On the procedure:
as §1, §2

In experiment [17] the target is T8, human FcγRIIb extracellular domain, …. In words: SPR, antibody captured, FcgR analyte. As to the method: as §1, §2
The target in experiment [18] is T9, human FcγRIIIaV extracellular domain, …. As to the kind of experiment: SPR, antibody captured, FcgR analyte. As to the method:
as §1, §2

T9 sequence (P08637 17-208 F176V): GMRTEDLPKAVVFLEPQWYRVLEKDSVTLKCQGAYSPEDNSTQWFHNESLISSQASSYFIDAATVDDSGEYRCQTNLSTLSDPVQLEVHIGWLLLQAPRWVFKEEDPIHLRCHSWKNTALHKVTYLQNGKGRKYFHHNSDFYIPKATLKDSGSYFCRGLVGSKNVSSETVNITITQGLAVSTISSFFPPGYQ

B1: M103205H795-MY001/M103202L889-SK1 (antibody, human IgG1, kappa)
heavy: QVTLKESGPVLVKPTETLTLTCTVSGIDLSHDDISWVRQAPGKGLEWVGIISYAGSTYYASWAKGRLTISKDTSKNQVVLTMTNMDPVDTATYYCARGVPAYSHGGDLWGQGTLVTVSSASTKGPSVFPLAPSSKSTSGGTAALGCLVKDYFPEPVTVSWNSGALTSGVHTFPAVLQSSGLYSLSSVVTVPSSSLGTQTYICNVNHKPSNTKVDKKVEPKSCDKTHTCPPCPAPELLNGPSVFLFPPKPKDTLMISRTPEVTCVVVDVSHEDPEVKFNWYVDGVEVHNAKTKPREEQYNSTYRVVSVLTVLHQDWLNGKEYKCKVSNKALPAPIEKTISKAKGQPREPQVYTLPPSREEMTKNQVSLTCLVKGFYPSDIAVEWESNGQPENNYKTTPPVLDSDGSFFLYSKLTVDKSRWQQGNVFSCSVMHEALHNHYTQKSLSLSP
light: DIVMTQSPATLSLSPGERATLSCTSSQSVYHANWLSWFQQKPGQPPKLLIYWASTLAYGVPSRFSGSGSGTDFTLTISSLQPEDAATYYCAGGYGGGRYAFGQGTKVEIKRTVAAPSVFIFPPSDEQLKSGTASVVCLLNNFYPREAKVQWKVDNALQSGNSQESVTEQDSKDSTYSLSSTLTLSKADYEKHKVYACEVTHQGLSSPVTKSFNRGEC
notes: Substitution put into M103205H795-SG1
Consider B1, for which the “KD fold (SG1 = 1)” value in [1] is 1.1 fold; in experiment [2], 1.4 fold; in experiment [3] it was 1.2 fold; in experiment [4], 1 fold; in [5], 0.03 fold; in [6], 0.2 fold. The figures for the “KD fold (SG1 = 1)” value in experiment [7], in [8] and in experiment [9] were 0.1 fold, 0.6 fold and 0.84 fold, respectively. In addition, the Kd stood at 2.9 µM in [10]; 3.5 µM in experiment [11]; 15 µM in experiment [12]; 1.8 µM in [13]; 1.2 µM in experiment [14]; 3.2 µM in experiment [15]. Moreover, the Kd was 8.2 µM in [16] and 7.7 µM in [17].

B2: M103205H795-MY042/M103202L889-SK1 (antibody, human IgG1, kappa)
heavy: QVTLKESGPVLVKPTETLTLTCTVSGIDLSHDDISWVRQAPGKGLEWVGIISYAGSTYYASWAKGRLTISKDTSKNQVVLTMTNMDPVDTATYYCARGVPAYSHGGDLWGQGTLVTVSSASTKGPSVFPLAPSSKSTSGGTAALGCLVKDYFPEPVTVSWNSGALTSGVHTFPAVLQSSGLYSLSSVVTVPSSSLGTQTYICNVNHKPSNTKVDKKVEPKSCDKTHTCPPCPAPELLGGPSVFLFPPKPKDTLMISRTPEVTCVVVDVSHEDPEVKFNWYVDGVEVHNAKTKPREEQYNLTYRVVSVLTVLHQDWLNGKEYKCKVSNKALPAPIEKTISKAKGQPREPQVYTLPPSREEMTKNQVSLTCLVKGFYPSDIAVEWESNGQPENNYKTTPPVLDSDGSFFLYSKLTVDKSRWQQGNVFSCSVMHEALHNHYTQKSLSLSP
light: DIVMTQSPATLSLSPGERATLSCTSSQSVYHANWLSWFQQKPGQPPKLLIYWASTLAYGVPSRFSGSGSGTDFTLTISSLQPEDAATYYCAGGYGGGRYAFGQGTKVEIKRTVAAPSVFIFPPSDEQLKSGTASVVCLLNNFYPREAKVQWKVDNALQSGNSQESVTEQDSKDSTYSLSSTLTLSKADYEKHKVYACEVTHQGLSSPVTKSFNRGEC
notes: as for B1
With B2, the “KD fold (SG1 = 1)” value in experiment [1] stood at 6.3 fold; in experiment [2] it was 1.6 fold; in experiment [3], 2.1 fold; in experiment [4], 1.1 fold; in experiment [5], 0.82 fold; in experiment [6] it was 0.7 fold. Besides, the “KD fold (SG1 = 1)” value amounted to 1.1 fold in experiment [7], 1.2 fold in experiment [8] and 1.53 fold in experiment [9]. In addition, the Kd in experiment [11] turned out to be 3.1 µM; in experiment [12], 8 µM; in [13], 1.6 µM; in [14], 0.44 µM; in [15] it was 1 µM; in experiment [16] it was 0.98 µM. The results for the Kd in [17] and in experiment [18] were 4 µM and 0.53 µM, respectively.

B3: M103205H795-MY011/M103202L889-SK1 (antibody, human IgG1, kappa)
heavy: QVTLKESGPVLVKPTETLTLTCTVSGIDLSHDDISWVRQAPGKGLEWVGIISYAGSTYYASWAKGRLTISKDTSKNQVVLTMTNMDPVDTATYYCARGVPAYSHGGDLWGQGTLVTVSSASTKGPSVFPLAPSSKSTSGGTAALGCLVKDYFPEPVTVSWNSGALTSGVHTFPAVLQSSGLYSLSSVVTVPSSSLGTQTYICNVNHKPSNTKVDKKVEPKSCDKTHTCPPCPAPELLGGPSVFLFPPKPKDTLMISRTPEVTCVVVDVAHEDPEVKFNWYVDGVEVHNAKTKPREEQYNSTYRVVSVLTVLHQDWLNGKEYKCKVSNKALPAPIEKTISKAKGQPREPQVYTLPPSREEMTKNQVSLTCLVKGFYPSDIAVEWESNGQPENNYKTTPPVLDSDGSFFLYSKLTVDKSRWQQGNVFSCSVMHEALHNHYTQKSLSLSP
light: DIVMTQSPATLSLSPGERATLSCTSSQSVYHANWLSWFQQKPGQPPKLLIYWASTLAYGVPSRFSGSGSGTDFTLTISSLQPEDAATYYCAGGYGGGRYAFGQGTKVEIKRTVAAPSVFIFPPSDEQLKSGTASVVCLLNNFYPREAKVQWKVDNALQSGNSQESVTEQDSKDSTYSLSSTLTLSKADYEKHKVYACEVTHQGLSSPVTKSFNRGEC
notes: Put into M103205H795-SG1
Turning to B3, the “KD fold (SG1 = 1)” value came out at 1.4 fold in experiment [1]; 1.8 fold in experiment [2]; 1.7 fold in [3]; 1.8 fold in experiment [4]; 2.4 fold in [5]; 1.4 fold in experiment [6]. For the same molecule, the “KD fold (SG1 = 1)” value stood at 6.5 fold in [7], 7 fold in [8] and 2.38 fold in experiment [9]. Besides, the Kd was 2.8 µM in experiment [11]; 9.9 µM in experiment [12]; 1 µM in experiment [13]; 0.15 µM in experiment [14]; 0.49 µM in [15]; 0.17 µM in experiment [16]. In addition, the Kd in experiment [17] was 0.66 µM; in experiment [18] it was 0.34 µM.

B4: M103205H795-MY074/M103202L889-SK1 (antibody, human IgG1, kappa)
heavy: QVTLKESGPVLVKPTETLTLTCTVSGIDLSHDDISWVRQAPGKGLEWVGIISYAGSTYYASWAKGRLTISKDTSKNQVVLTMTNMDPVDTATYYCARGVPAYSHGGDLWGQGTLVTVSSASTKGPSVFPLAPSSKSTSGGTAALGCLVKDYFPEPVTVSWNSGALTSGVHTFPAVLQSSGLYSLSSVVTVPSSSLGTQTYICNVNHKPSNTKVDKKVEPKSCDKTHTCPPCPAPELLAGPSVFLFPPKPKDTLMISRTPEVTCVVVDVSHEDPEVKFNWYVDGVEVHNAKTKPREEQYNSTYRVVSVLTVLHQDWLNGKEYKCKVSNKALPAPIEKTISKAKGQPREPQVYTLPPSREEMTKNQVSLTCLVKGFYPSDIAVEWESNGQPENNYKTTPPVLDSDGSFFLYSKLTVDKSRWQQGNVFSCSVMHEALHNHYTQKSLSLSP
light: DIVMTQSPATLSLSPGERATLSCTSSQSVYHANWLSWFQQKPGQPPKLLIYWASTLAYGVPSRFSGSGSGTDFTLTISSLQPEDAATYYCAGGYGGGRYAFGQGTKVEIKRTVAAPSVFIFPPSDEQLKSGTASVVCLLNNFYPREAKVQWKVDNALQSGNSQESVTEQDSKDSTYSLSSTLTLSKADYEKHKVYACEVTHQGLSSPVTKSFNRGEC
notes: as for B1
Turning to B4, the “KD fold (SG1 = 1)” value is 1.6 fold in experiment [1]; 2.2 fold in experiment [2]; 2.7 fold in experiment [3]; 1.6 fold in experiment [4]; 1.33 fold in experiment [5]; 7.5 fold in experiment [6]. Besides, the “KD fold (SG1 = 1)” value in experiment [7] stood at 5.2 fold; in experiment [8], 1.3 fold; in [9], 1.45 fold. In addition, the Kd in [10] turned out to be 2 µM; in experiment [12], 6.2 µM; in experiment [13], 1.1 µM; in [14], 0.27 µM; in [15], 0.092 µM; in [17], 8.6 µM. In experiment [18], this molecule gave a Kd of 0.56 µM.

The values above are taken from patent US20200317768A1 (published 2020).
